Reference: US20190248902A1 (published 2019)
Numbering of substitutions follows the chain as printed.

T1: recombinant, soluble human ASGR-1 (human, UniProt P07306 62-291)
T1 construct: biotinylated in the binning assay; also called soluble huASGR-1; Soluble ASGR-1 (Amgen)
T1 sequence: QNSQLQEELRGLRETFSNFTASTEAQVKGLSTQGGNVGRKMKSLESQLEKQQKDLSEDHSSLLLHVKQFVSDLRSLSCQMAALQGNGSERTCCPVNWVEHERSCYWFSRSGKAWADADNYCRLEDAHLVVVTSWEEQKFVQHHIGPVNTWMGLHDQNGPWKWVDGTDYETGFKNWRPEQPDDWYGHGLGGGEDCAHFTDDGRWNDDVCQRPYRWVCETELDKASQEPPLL

B1: 6G7 (antibody, V domains shown)
VH: QVQLVESGGGVVQPGRSLRLSCAASGFTFSSYGMHWVRQTPGKGLEWVAIISYVGKNKYYADSVKGRFTISRDNSKNTLYLQMNSLRAEDTAVYYCARRGNSYGGYGMDVWGQGTTVTVSS
VL: DIQMTQSPSSRSASVGDRVTITCQASQDISNYLNWCQQKPGKALKLLIYDASTLETGVPSRFSGSGSGTDFTFTISSVQPEDIATYYCQQYDNVPITFGQGTRLEIK
notes: hybridoma mAb
B2: 184E7 (antibody, V domains shown)
VH: QVQLVQSGAEVKTPGASVKVSCRASGYTFTSYNMHWVRQVPGQGLEWMGWINPNNGGSNYTQKFQGRVTMTRDTSISTAYMELSRLRSDDTAVYYCARKFGDWGQGTLVTVSS
VL: DIQMTQSPSSRSASIGERVTITCRASQGISNYLAWIQQKPGTAPKSLIYAASSLQSGVSSRFSGSGFGTDFTITISSVQREDFATYYCQQYNGYPFTFGHGTKVDIK
notes: hybridoma mAb
B3: 48B12 (antibody, V domains shown)
VH: EVQLLESGGGLVQPGGSLRLSCAASGFTFSSYAMNWVRQAPGKGLEWVSAISGRGGNTFYADSVKGRFTISRDNSKNTLYLQMNSLRAEDTAVYYCAKRETYNWNYEGFDYWGQGTLVTVSS
VL: SYELTQPPSVSVSPGQTARITCSGDALPKKYAYWYQQKSGQAPVLVIYEDSKRPSGIPERFSGSSSGTMATLTISGAQVEDEADYYCNSTDSSGNHVVFGGGTKLTVL
notes: hybridoma mAb
B4: 4B1 (antibody, V domains shown)
VH: QVQLQESGPGLVKPSETLSLTCSVSGDSISSYSWSWIRQPAGKGLEWIGRIYTSGSTNYIPSLKSRITMSVDTSKKQFSLKLSSVTAADTAVYYCARDLKSSGCLFFDYWGQGTLVTVSS
VL: DIQMTQSPSSLSASVGDRVTITCRASHTIRTYLNWYQQKPGKAPKLLIYAASSLQSGVPSRINGSGSGTDFTLTITNLQPEDFATYYCQQSYNISFTFGPGTKVDIK
notes: hybridoma mAb
B5: 52H2 (antibody, V domains shown)
VH: EVQLLESGGGLVQPGGSLRLSCAASGFTFSRNAMSWVRQAPGMGLEWVSAISGRGGNTFYADSVKGRFTVSRDNSKNTLFLQMNSLRAEDTAVYYCAKNGREQWLDYWGQGTLVTVSS
VL: DIQMTQSPSSVSASVGDRVTITCRASQNITNWLAWFQQKPGRAPKLLIYTTSSLQSGVPSRFSGSGSGTDFTLTISSLQPEDFATYCCQQTNSFPWTFGHGTKVEVK
notes: hybridoma mAb
B6: 62H10 (antibody, V domains shown)
VH: EVQLVESGGGLVKPGGSLRLSCAASGFTFSSYSMNWVRQAPGKGLEWVSSISSSSSYIYYADSVKGRFTISRDNAKNSLYLQMNSLRAEDTAVYYCARGGSRGFDPWGQGTLVTVSS
VL: DIQMTQSPSSLSASVGDRVTITCRASQSITSYLNWYQQKPGKVPKLLISTASSLQSGVPSRFSGSGSGTDFTLTISSLQPEDFATYYCQQSHSFPFTFGPGTNVDFK
notes: hybridoma mAb
B7: 72G9 (antibody, V domains shown)
VH: B6 VH with S53G, Y95F
VL: B6 VL with V43A, S49Y, N103K, F106I
notes: hybridoma mAb
B8: 72F5 (antibody, V domains shown)
VH: EVQLLESGGGLVQPGGSLRLSCAASGFTFSSYAMIWVRQAPGKGLEWVSTISGSGGYTYSADSVKGRFTISRDNSKNTLYLQMNSLRAEDTAVYYCARRIAVTGTEWYDPWGQGTLVTVSS
VL: DIQMTQSPSSLSASVGDRVIIPCRASQNISSYLNWYQQKPGKAPKLLIYAASSLQSGVPSRFSGSGSGTDFTLTISSLQPEDFATYSCQQTYSTPTFGQGTRLDIN
notes: hybridoma mAb
B9: 208A2 (antibody, V domains shown)
VH: QVQLQESGPGLVKPSETLSLNCTVSGGSIRSYYWSWIRQPAGKGLEWIGRIYTSGSTDYNPSLKSRITMSVDTSKNQFSLKLSSVTAADTAVYYCARGFGDWDYWGQGTLVTVSS
VL: DIQMTQSPSSLSASVGDRVTITCRTSQGIRNDLGWYQQQPGKTPKRLIYAASSLLSGVPSRFSGSRSGTDFTLTISSLQPEDFATYYCLQYNSYPPTFGQGTRLEIK
notes: hybridoma mAb
B10: 210G10 (antibody, V domains shown)
VH: B9 VH
VL: B9 VL with C23F, L47M, L55F
notes: hybridoma mAb
B11: 60G2 (antibody, V domains shown)
VH: QVQLVESGGGVVQPGRSLRLSCAASGFTFSSYGMHWVRQAPGKGLEWVAVIWYDGSNKYYADSVKGRFTISRDNSKNTLYLQMNSLRAEDTAVYYCARRYSRSWTGGMDVWGQGTTVTVSS
VL: DIVMTQTPLSLSVTPGQSASISCKSSQSLLHSEGKTYLYWYLQKPGQPPQLLIYEVSNRISGVPDRFSGSGSGTDFTLKISRVEAEDVGVYYCMQSIQLPLTFGGGTKVEIK
notes: hybridoma mAb
B12: 173C11 (antibody, V domains shown)
VH: B11 VH with M34I, V50L, W52F, Q82H, N84S, R102S, T105S
VL: DIVMTQTPLSLSVTPGQPASISCKSSQSLLHSEGKTYLYWYLQKPGQPPQLLIYEVSHRFSGVPDRFSGSGSGTDFTLKISRVEAEDVGVYYCMQSIQLLTFGGGTKVEIK
notes: hybridoma mAb
B13: 60C12 (antibody, V domains shown)
VH: B11 VH with A61V
VL: B11 VL with S18P, L51F, I60F, V90I, Q98K, L99Y
notes: hybridoma mAb
B14: 47C1 (antibody, V domains shown)
VH: B11 VH with S31D, A40T, Y80F, A88D, T105V
VL: B11 VL with S18P, K24T, I60F, Y91F, L101W, G105Q
notes: hybridoma mAb
B15: 148H10 (antibody, V domains shown)
VH: B11 VH with A61G, R102S, T105S
VL: B11 VL with S18P, N58Y, I60V
notes: hybridoma mAb
B16: 194A4 (antibody, V domains shown)
VH: QVQLVQSGTEVKKPGASLKVSCKASGYTFTVYYLNWVRQAPGQGLEWMGWINPNSGGTNYAQKFQGRVTMTRDTSISTAYMELSRLRSDDTAVYYCARGYDILTGWGQGTLVTVSS
VL: EIVLTQSPGTLSLSPGERATLSCRASRGVSNIYLAWYQQKPGQAPRLLIYGASNRATGIPDRFSGSGSGTDFTLTISRLEPEDFAVYYCQHNDYSMFTFGPGTKVDIK
notes: hybridoma mAb
B17: 147E9 (antibody, V domains shown)
VH: EVQLVESGGGLVQPGGSLRLSCAASGFTFSSYSMNWVRQAPGKGLEWVSSISGRNTTIYYADSVKGRFTISRDNAKNSLYLQMNSLRDEDTAVYYCSRDRGSCWGQGTLVTVSS
VL: DIQMTQSPSSLSASVGDRVTITCRASQDINNYLAWFQQKPGKAPKSLIVAASSLQSGVPSKFSGSGSGTDFTLTISSLQPEDFATYYCQQYNSYPLTFGGGTKVEIK
notes: hybridoma mAb
B18: 64G12 (antibody, V domains shown)
VH: EVQLLESGGGLVQPGGSLRLSCAASGFTFSSNAMSWVRQAPGKGLEWVSVISGSGGSTYYADSVKGRFTISRDNSKNTLYLQMNSLRAEDTALYYCAKRNYDDAFDIWGQGTMVTVSS
VL: DIQMTQSPSSVSASVGDRVTITCRASQNITTWLAWYQQKPGKAPKLLISAASSLQSGVPSRFSGSGSGTDFTLTISSLQPEDFATYICQQANSFPFTFGPGTKLDIK
notes: hybridoma mAb

Molecular target: T1, recombinant, soluble human ASGR-1
Assay: Octet BLI dissociation, pH 5.6 minus calcium
Outline: (§1)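 Antibodies were captured on anti-human Fc biosensors, and soluble ASGR-1 (6 ug/ml) was associated for 2 min in Tris buffer containing 1 mM CaCl2 at pH 7.4, followed by 10 min dissociation under each test condition. The signal at the end of association was set as 100%. Percent ASGR-1 still bound after 1 min of dissociation was compared with the pH 7.4 plus calcium control, and >10% extra dissociation was scored as sensitive.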

Row | Binder | % Change Compared to pH 7.4 + Calcium [%]
1 | B1 | 16
2 | B2 | -3
3 | B3 | 0
4 | B4 | -2
5 | B5 | 32
6 | B6 | 14
7 | B7 | -1
8 | B8 | 30
9 | B9 | -5
10 | B10 | -5
11 | B11 | 31
12 | B12 | 29
13 | B13 | 12
14 | B14 | 10
15 | B15 | 47
16 | B16 | -3
17 | B17 | 20
18 | B18 | 24

Molecular target: T1, recombinant, soluble human ASGR-1
Assay: Octet BLI dissociation, pH 5.6 plus calcium
Outline: as §1

Row | Binder | % Change Compared to pH 7.4 + Calcium [%]
19 | B1 | 4
20 | B2 | -9
21 | B3 | -6
22 | B4 | -5
23 | B5 | 11
24 | B6 | -2
25 | B7 | -7
26 | B8 | 20
27 | B9 | -10
28 | B10 | -10
29 | B11 | 7
30 | B12 | 0
31 | B13 | -3
32 | B14 | -1
33 | B15 | 10
34 | B16 | -7
35 | B17 | -4
36 | B18 | 10

Molecular target: T1, recombinant, soluble human ASGR-1
Assay: Octet BLI dissociation, pH 7.4 minus calcium
Outline: as §1

Row | Binder | % Change Compared to pH 7.4 + Calcium [%]
37 | B1 | 8
38 | B2 | 1
39 | B3 | 4
40 | B4 | 6
41 | B5 | 26
42 | B6 | 13
43 | B7 | 1
44 | B8 | 64
45 | B9 | -4
46 | B10 | -3
47 | B11 | 36
48 | B12 | 17
49 | B13 | 14
50 | B14 | 13
51 | B15 | 45
52 | B16 | -1
53 | B17 | 5
54 | B18 | 24
